Tests used:
LLC cells = assay: ex vivo co-display of fusion proteins on biotinylated LLC cells (flow cytometry); type: cell-based; conditions: 15 μM biotin, 100 ng/protein/10^6 cells
Protocol: (§1) Engineering of cell surfaces. LLC or A20 tumor cells are washed with ice-cold PBS and incubated at 2×10^7 cells/ml in PBS, pH 8.0, containing 5-15 μM EZ-Link™ Sulfo-NHS-LC-Biotin (Pierce) at room temperature for 30 min. Cells are washed extensively and incubated at 1×10^6 cell/ml with 100 ng/purified immune co-stimulatory-streptavidin fusion protein for 45 min at 4° C. After extensive washing with PBS, cells are processed for flow cytometric analysis to assess the cells engineered with the immune co-stimulatory fusion proteins. Such cells also are used for functional studies in vitro. Cells are irradiated at 100 Gy prior to being used in in vitro studies.
One million LLC cells were biotinylated using 15 μM of EZ-Link™ Sulfo-NHS-LC-Biotin derivative from Pierce Biotechnology, Inc. (Rockford, Ill.) in PBS at room temperature for 20-30 minutes. Biotin was then removed by centrifugation, cells were washed once, transferred into a clean second tube, washed 1-2 more times, and then contacted with CD80-CSA and 4-1BBL-CSA fusion proteins at 100 ng/protein/10^6 cells in PBS for 30-45 minutes on ice. Cells were then washed extensively and used for staining with saturating concentrations of various fluorochrome-conjugated antibodies to CD80 and 4-1BBL in PBS by incubation on ice for 30-45 minutes. Cells were then washed extensively with FACS medium and used for flow cytometric analysis. […] FIG. 8.

A20 B lymphoma cells [1] = assay: in vivo engineering of solid A20 tumors (intratumoral biotin, then CD80-CSA); design: species or system Balb/c mice
Protocol: One million live A20 B lymphoma cells were injected subcutaneously to the right flank of naïve syngeneic Balb/c mice. When the tumor size reached 7-9 mm in diameter, 300 μL of 1 mM EZ-Link Sulfo-NHS-LC-Biotin in PBS was injected into the tumor, followed 24 hrs later by intratumoral injection of 40 μg of CD80-CSA fusion protein in 150 μL PBS. Tumor cells were harvested and analyzed 24 hrs after protein injection. Biotin levels were detected by streptavidin-APC and fusion protein levels were detected by an antibody against CD80. Cells from untreated tumors and biotinylated tumors were used as negative controls for biotin and CD80, respectively.

A20 cells [2] = assay: effect of timing of CD80-CSA administration after biotinylation of A20 tumors; type: in vivo, BALB/c mice
Protocol: A similar protocol was followed to evaluate the effect of the timing of the CD80-CSA administration subsequent to biotinylation. 1×10^6 A20 cells were injected subcutaneously into the right back flank of naïve BALB/c mice. Tumor growth was monitored and measured using calipers three times a week. When the tumor size reached 7-9 mm average diameter, 300 μl of 5 mM biotin solution (EZ-Link Sulfo-NHS-LC-Biotin in PBS) was injected into the tumors. At 2, 4, 8 or 16 hours after biotin injection, biotinylation was assessed as described above and 50 μg of CD80-SA was administered by intratumoral injection. (Some animals were left untreated as negative controls.) Animals were euthanized 16 hours after CD80-SA injection. Tumors were processed into single cell suspensions, and fusion protein levels were detected by an antibody against CD80 using flow cytometry. The results (FIG. 16) show a greater percentage of biotinylated cells decorated when the fusion protein was administered 16 hours after biotin administration, with 62% of biotinylated cells being decorated, compared to 49%, 31% and 10% at 8, 4 and 2 hours post-biotin administration, respectively.

A20 B lymphoma cells [3] = assay: quantification of CD80-CSA molecules displayed per cell (Quantum-27 MESF kit); type: cell-based; conditions: 5 μM biotin, 100 ng protein
Protocol: Cells were stained with phycoerythrin (PE) conjugated anti-human CD80 antibody. The Quantum-27 MESF kit from Bangs Laboratories was used to estimate the number of CD80-CSA molecules per cell. Molecules of equivalent soluble fluorochrome (MESF) for the samples were calculated according to the calibration curve constructed by five MESF beads with varying MESF values (0, 727, 2737, 10110, 41738) using Cell Quest analysis program (Becton Dickinson Biosciences). The data for each sample was converted into MESF values. FIG. 10.

A20 cells [4] = assay: ex vivo co-display of fusion proteins on biotinylated A20 cells (flow cytometry); type: cell-based; conditions: 5 μM biotin, 100 ng/protein/10^6 cells
Protocol: as §1
A20 cells were biotinylated (5 μM) and then contacted with CD80-CSA and 4-1BBL-CSA fusion proteins at 100 ng/protein/10^6 cells, following procedures similar to those set forth above.

[5] = system: peripheral blood lymphocytes from healthy volunteers; assay: MLTR assay with tumor cells engineered with CD80-CSA; type: cell-based, human; conditions: HEC-1-A endometrial cancer cell line engineered with CD80-CSA
splenocytes = assay: in vivo kinetics of protein display on ex vivo engineered splenocytes; conditions: 15 μM biotin, 100 ng/1×10^6 cells, injected intravenously into syngeneic animals
Protocol: The kinetics of persistence of the exogenous proteins on the cell surface was determined in vivo. Splenocytes were modified with biotin (15 μM), engineered with an CD80-CSA fusion protein (100 ng/1×10^6 cells), labeled with CFSE, and injected intravenously into syngeneic animals. Splenocytes and LN cells were harvested various days post-injection and analyzed for the presence of fusion protein on CFSE positive cells. CD80-CSA persisted on the surface of splenocytes with a t1/2 of >10 days. FIG. 9.

CD4^+ or CD8^+ T cells = assay: proliferation of CFSE-labeled T cells against A20 cells decorated with 4-1BBL; type: cell-based, C57B/6 (H2-K^b) mice; conditions: 4:1 ratio, 4 days co-culture, flow cytometry
Protocol: CD4^+ and CD8^+ T cells were FACS-sorted from spleens and lymph nodes of naïve C57B/6 (H2-K^b) mice and were stained with carboxyfluorescein diacetate succinimidylester (CFSE). Briefly, cells were washed with PBS, incubated in 4 ml of 2.5 μM CFSE/1×10^6 cells for 7 minutes at room temperature. Cells were then incubated in two volumes of FBS for 1 min, and washed 2 times with PBS. A20 B lymphoma cells (H2-K^d) were washed in PBS and biotinylated using freshly prepared EZ-Link Sulfo-NHS-LC-Biotin in PBS (1 ml solution per 50×10^6 cells) for 30 min at room temperature. After washing with PBS, cells were irradiated at 10000 cGy. Biotinylated and irradiated A20 cells were incubated with CSA-4-1BBL (100 ng/1×10^6cells) or control protein CSA (38 ng/1×10^6 cells) in 5 ml tubes for 30 minutes in a cold room. After washing the cells extensively, some of the cells were stained with fluorochrome conjugated antibodies against 4-1BBL and streptavidin to detect the decoration, or with fluorochrome conjugated streptavidin to detect biotinylation. […]
Proliferation of T cells were determined using flow cytometry after staining cells with fluorochrome conjugated anti-CD4 or anti-CD8 antibodies.

B1: CD80-CSA: chimeric protein comprising the extracellular domain of human B7.1 (CD80) and core streptavidin (SEQ ID NO:4) (protein)
chain: SPVQLKGGSDLNMKLCILLAVVAFVGLSLGRSIHVTKEVKEVATLSCGHNVSVEELAQTRIYWQKEKKMVLTMMSGDMNIWPEYKNRTIFDITNNLSIVILALRPSDEGTYECVVLKYEKDAFKREHLAEVTLSVKADFPTPSISDFEIPTSNIRRIICSTSGGFPEPHLSWLENGEELNAINTTVSQDPETELYAVSSKLDFNMTTNHSFMCLIKYGHLRVNQTFNWNTTKQERSHHHHHHITGTWYNQLGSTFIVTAGADGALTGTYESAVGNAESRYVLTGRYDSAPATDGSGTALGWTVAWKNNYRNAHSATTWSGQYVGGAEARINTQWLLTSGATEANAWKSTLVGHDTFTKVKPSAASSRILQISSTVAAARV
- display on the surface of tumor cells (LLC cells): co-displayed on the surface of tumor cells at comparable levels
- tumor cells positive for CD80 (A20 B lymphoma cells [1]; 40 μg intratumorally 24 hrs after biotin, 24 hrs after protein injection): 81%
- biotin positive cells displaying protein (A20 B lymphoma cells [1]; I mM biotin followed by 40 μg 24 hrs later): > 80%
- biotinylated cells being decorated (A20 cells [2]; 50 μg intratumorally 2 hours after 5 mM biotin): 10%
- biotinylated cells being decorated (A20 cells [2]; 50 μg intratumorally 4 hours after 5 mM biotin): 31%
- biotinylated cells being decorated (A20 cells [2]; 50 μg intratumorally 8 hours after 5 mM biotin): 49%
- biotinylated cells being decorated (A20 cells [2]; 50 μg intratumorally 16 hours after 5 mM biotin): 62%
- average number of molecules per cell (A20 B lymphoma cells [3]): 118,000 molecules per cell
- display on the surface of tumor cells (A20 cells [4]): co-displayed on the surface of tumor cells at comparable levels
- proliferative response of peripheral blood lymphocytes [5]: potent proliferative responses
- t1/2 of persistence on the surface of splenocytes in vivo (splenocytes): > 240 h

B2: 4-1BBL-CSA: CSA-murine 4-1 BBL fusion protein (SEQ ID NOs 5 and 6) (protein)
chain: FMQLKGGSDLNMKLCILLAVVAFVGLSLGRSHHHHHHITGTWYNQLGSTFIVTAGADGALTGTYESAVGNAESRYVLTGRYDSAPATDGSGTALGWTVAWKNNYRNAHSATTWSGQYVGGAEARINTQWLLTSGATEANAWKSTLVGHDTFTKVKPSAASSEFRTEPRPALTITTSPNLGTRENNADQVTPVSHIGCPNTTQQGSPVFAKLLAKNQASLCNTTLNWHSQDGAGSSYLSQGLRYEEDKKELVVDSPGLYYVFLELKLSPTFTNTGHKVQGWVSLVLQAKPQVDDFDNLALTVELFPCSMENKLVDRSWSQLLLLKAGHRLSVGLRAYLHGAQDAYRDWELSYPNTTSFGLFLVKPDNPWE
- display on the surface of tumor cells (LLC cells): co-displayed on the surface of tumor cells at comparable levels
- display on the surface of tumor cells (A20 cells [4]): co-displayed on the surface of tumor cells at comparable levels
- proliferative response of T cells against decorated A20 cells (CD4^+ or CD8^+ T cells): 52.6%

Source: patent publication US20070172504A1, “In vivo cell surface engineering” (University of Lousville Research Foundation, Inc., priority 2005, published 2007)
